Patent US20220089698A1 (published 2022)

Assays:
HIV gp120 Bal = HIV gp120 Bal (HIV); experiment: single-point ELISA; further: test concentration or dose not given here
HIV gp120 CAAN = HIV gp120 CAAN (HIV); experiment: single-point ELISA; further: test concentration or dose not given here

Binder | ELISA (A450) (HIV gp120 Bal) | ELISA (A450) (HIV gp120 CAAN)
1.2.1-1 (antibody, human IgG1, kappa) heavy: QVQLLQSGAEVKKPGASVRVSCEASGYNIRDYFIHWWRQAPGQGLQWVGWINPKTGQPNNPRQFQGRVSLTRHASWDFDTFSFYMDLKALRSDDTAVYFCARQRSDYWDFDVWGSGTMVTVSSASTKGPSVFPLAPSSKSTSGGTAALGCLVKDYFPEPVTVSWNSGALTSGVHTFPAVLQSSGLYSLSSVVTVPSSSLGTQTYICNVNHKPSNTKVDKKVEPKSCDKTHTCPPCPAPELLAGPDVFLFPPKPKDTLMISRTPEVTCVVVDVSHEDPEVKFNWYVDGVEVHNAKTKPREEQYNSTYRVVSVLTVLHQDWLNGKEYKCKVSNKALPLPEEKTISKAKGQPREPQVYTLPPSREEMTKNQVSLTCLVKGFYPSDIAVEWESNGQPENNYKTTPPVLDSDGSFFLYSKLTVDKSRWQQGNVFSCSVLHEALHSHYTQKSLSLSPGK light: DIQMTQSPSSLSASVGDTVTITCQANGYLNWYQQRRGKAPKLLIYDGSKLERGVPSRFSGRRWGQEYNLTINNLQPEDIATYFCQVYEFVVPGTRLDLKRTVAAPSVFIFPPSDEQLKSGTASVVCLLNNFYPREAKVQWKVDNALQSGNSQESVTEQDSKDSTYSLSSTLTLSKADYEKHKVYACEVTHQGLSSPVTKSFNRGEC | 0.93 | 1.01
1.6.1-1 (antibody, human IgG1, kappa) heavy: QVQLLQSGAEVTKPGASVRVSCEASGYNIRDYFIHWWRQAPGQGLQWVGWINPKTGQPNNPRQFQGRVSLTRHASWDFDTFSFYMDLKALRSDDTAVYFCARQRSDYWDFDVWGSGTQVTVSSASTKGPSVFPLAPSSKSTSGGTAALGCLVKDYFPEPVTVSWNSGALTSGVHTFPAVLQSSGLYSLSSVVTVPSSSLGTQTYICNVNHKPSNTKVDKKVEPKSCDKTHTCPPCPAPELLAGPDVFLFPPKPKDTLMISRTPEVTCVVVDVSHEDPEVKFNWYVDGVEVHNAKTKPREEQYNSTYRVVSVLTVLHQDWLNGKEYKCKVSNKALPLPEEKTISKAKGQPREPQVYTLPPSREEMTKNQVSLTCLVKGFYPSDIAVEWESNGQPENNYKTTPPVLDSDGSFFLYSKLTVDKSRWQQGNVFSCSVLHEALHSHYTQKSLSLSPGK light: DIQMTQSPSSLSASVGDTVTITCQANGYLNWYQQRRGKAPKLLIYDGSKLERGVPSRFSGRRWGQEYNLTINNLQPEDIATYFCQVYEFVVPGTRLDLKRTVAAPSVFIFPPSDEQLKSGTASVVCLLNNFYPREAKVQWKVDNALQSGNSQESVTEQDSKDSTYSLSSTLTLSKADYEKHKVYACEVTHQGLSSPVTKSFNRGEC | 0.95 | 0.9
1.7.1-1 (antibody, human IgG1, kappa) heavy: QVQLLQSGAEVKKPGASVRVSCEASGYNIRDYFIHWWRQAPGQGLQWVGWINPKTGQPNNPRQFQGRVSLTRHASWDFDTFSFYMDLKALRSDDTAVYFCARQRSDYWDFDVWGSGTQVTVSSASTKGPSVFPLAPSSKSTSGGTAALGCLVKDYFPEPVTVSWNSGALTSGVHTFPAVLQSSGLYSLSSVVTVPSSSLGTQTYICNVNHKPSNTKVDKKVEPKSCDKTHTCPPCPAPELLAGPDVFLFPPKPKDTLMISRTPEVTCVVVDVSHEDPEVKFNWYVDGVEVHNAKTKPREEQYNSTYRVVSVLTVLHQDWLNGKEYKCKVSNKALPLPEEKTISKAKGQPREPQVYTLPPSREEMTKNQVSLTCLVKGFYPSDIAVEWESNGQPENNYKTTPPVLDSDGSFFLYSKLTVDKSRWQQGNVFSCSVLHEALHSHYTQKSLSLSPGK light: DIQMTQSPSSLSASVGDTVTITCQANGYLNWYQQRRGKAPKLLIYDGSKLERGVPSRFSGRRWGQEYNLTINNLQPEDIATYFCQVYEFVVPGTRLDLKRTVAAPSVFIFPPSDEQLKSGTASVVCLLNNFYPREAKVQWKVDNALQSGNSQESVTEQDSKDSTYSLSSTLTLSKADYEKHKVYACEVTHQGLSSPVTKSFNRGEC | 0.98 | 1.04
1.3.1-1 (antibody, human IgG1, kappa) heavy: QVSLLQSGAAVTKPGASVRVSCEASGYNIRDYFIHWWRQAPGQGLQWVGWINPKTGQPNNPRQFQGRVSLTRHASWDFDTFSFYMDLKALRSDDTAVYFCARQRSDYWDFDVWGSGTQVTVSSASTKGPSVFPLAPSSKSTSGGTAALGCLVKDYFPEPVTVSWNSGALTSGVHTFPAVLQSSGLYSLSSVVTVPSSSLGTQTYICNVNHKPSNTKVDKKVEPKSCDKTHTCPPCPAPELLAGPDVFLFPPKPKDTLMISRTPEVTCVVVDVSHEDPEVKFNWYVDGVEVHNAKTKPREEQYNSTYRVVSVLTVLHQDWLNGKEYKCKVSNKALPLPEEKTISKAKGQPREPQVYTLPPSREEMTKNQVSLTCLVKGFYPSDIAVEWESNGQPENNYKTTPPVLDSDGSFFLYSKLTVDKSRWQQGNVFSCSVLHEALHSHYTQKSLSLSPGK light: DIQMTQSPSSLSASVGDTVTITCQANGYLNWYQQRRGKAPKLLIYDGSKLERGVPSRFSGRRWGQEYNLTINNLQPEDIATYFCQVYEFVVPGTRLDLKRTVAAPSVFIFPPSDEQLKSGTASVVCLLNNFYPREAKVQWKVDNALQSGNSQESVTEQDSKDSTYSLSSTLTLSKADYEKHKVYACEVTHQGLSSPVTKSFNRGEC | 0.97 | 0.94
1.4.1-1 (antibody, human IgG1, kappa) heavy: QVQLVQSGAAVTKPGASVRVSCEASGYNIRDYFIHWWRQAPGQGLQWVGWINPKTGQPNNPRQFQGRVSLTRHASWDFDTFSFYMDLKALRSDDTAVYFCARQRSDYWDFDVWGSGTQVTVSSASTKGPSVFPLAPSSKSTSGGTAALGCLVKDYFPEPVTVSWNSGALTSGVHTFPAVLQSSGLYSLSSVVTVPSSSLGTQTYICNVNHKPSNTKVDKKVEPKSCDKTHTCPPCPAPELLAGPDVFLFPPKPKDTLMISRTPEVTCVVVDVSHEDPEVKFNWYVDGVEVHNAKTKPREEQYNSTYRVVSVLTVLHQDWLNGKEYKCKVSNKALPLPEEKTISKAKGQPREPQVYTLPPSREEMTKNQVSLTCLVKGFYPSDIAVEWESNGQPENNYKTTPPVLDSDGSFFLYSKLTVDKSRWQQGNVFSCSVLHEALHSHYTQKSLSLSPGK light: DIQMTQSPSSLSASVGDTVTITCQANGYLNWYQQRRGKAPKLLIYDGSKLERGVPSRFSGRRWGQEYNLTINNLQPEDIATYFCQVYEFVVPGTRLDLKRTVAAPSVFIFPPSDEQLKSGTASVVCLLNNFYPREAKVQWKVDNALQSGNSQESVTEQDSKDSTYSLSSTLTLSKADYEKHKVYACEVTHQGLSSPVTKSFNRGEC | 1.04 | 0.96
1.5.1-1 (antibody, human IgG1, kappa) heavy: QVQLVQSGAAVTKPGASVRVSCKASGYNIRDYFIHWWRQAPGQGLQWVGWINPKTGQPNNPRQFQGRVSLTRHASWDFDTFSFYMDLKALRSDDTAVYFCARQRSDYWDFDVWGSGTQVTVSSASTKGPSVFPLAPSSKSTSGGTAALGCLVKDYFPEPVTVSWNSGALTSGVHTFPAVLQSSGLYSLSSVVTVPSSSLGTQTYICNVNHKPSNTKVDKKVEPKSCDKTHTCPPCPAPELLAGPDVFLFPPKPKDTLMISRTPEVTCVVVDVSHEDPEVKFNWYVDGVEVHNAKTKPREEQYNSTYRVVSVLTVLHQDWLNGKEYKCKVSNKALPLPEEKTISKAKGQPREPQVYTLPPSREEMTKNQVSLTCLVKGFYPSDIAVEWESNGQPENNYKTTPPVLDSDGSFFLYSKLTVDKSRWQQGNVFSCSVLHEALHSHYTQKSLSLSPGK light: DIQMTQSPSSLSASVGDTVTITCQANGYLNWYQQRRGKAPKLLIYDGSKLERGVPSRFSGRRWGQEYNLTINNLQPEDIATYFCQVYEFVVPGTRLDLKRTVAAPSVFIFPPSDEQLKSGTASVVCLLNNFYPREAKVQWKVDNALQSGNSQESVTEQDSKDSTYSLSSTLTLSKADYEKHKVYACEVTHQGLSSPVTKSFNRGEC | 0.92 | 1.07
